Laboratory results from patent US5495006A, “Antiviral polynucleotide conjugates” (Allelix Biopharmaceuticals, Inc., priority 1993, dated 1996).

How the values were obtained:
[1] = tested on: HSV-1; assay: Plaque reduction assay, HSV-1 in Vero cells; type: cell-based, herpes simplex virus type I; settings: for % Inhibition (plaque reduction, HSV-1 replication): Vero cells, estimation
Procedure: Specifically, monolayers of cells were pretreated by incubation with one of conjugates (III) and (IV), infected with various concentrations of HSV-1 (measured by plaque forming units, PFU) and the infected cells were then incubated in the presence of conjugate. Following incubation with the conjugate, the cells were stained using the conventional crystal violet staining method. Those portions of the cell monolayer appearing as clear, unstained areas were identified as dead, virally-infected cells (i.e. plaques), while those areas stained purple indicated viable cells. Thus, inhibition of the virus was determined by counting, using a dissecting microscope, the number of plaques. The number of plaques on a plate incubated in the presence of conjugate was compared to the number of plaques on a control plate incubated in the absence of conjugate and the extent of viral inhibition was thus determined.
Vero cells (African green monkey kidney cells, ATCC CCL 81) were seeded into a 96-well plate at a concentration of 2×10^4 cells per well in 50 μl of Dulbecco's modified eagle medium (DMEM, Gibco). The media was supplemented with 10% Nu-serum (Biomedical Products), penicillin (100 IU/ml), streptomycin ([…]) and gentamicin (0.02 mg/ml) obtained from Gibco. The cells were pretreated with polynucleotide conjugate (III) at concentrations of 1 μM and 10 μM by incubation for 24 hours at 37° C. and 5% CO2. Following the incubation, the culture medium was removed from the cells. […]
The media was removed from the cells and the cells were subsequently stained with crystal violet in 70% ethanol:formalin:acetic acid (20:2:1) solution and heat fixed. The average number of plaques per well of each test sample were counted using a dissecting microscope (10-40× magnification). Inhibition was determined as the difference between the number of plaques in the control sample (0 μM conjugate) and the number of plaques in the test sample. […]

[2] = tested on: HIV-1 Tat-derived peptide RKKRRQRRRPPQGS (Human immunodeficiency virus 1); assay: EMSA
[3] = molecular target: T1, HIV-1 Tat-derived peptide RKKRRQRRRPPQGS (Human immunodeficiency virus 1); assay: EMSA; 40.1% active RNA; settings: protein: synthetic; tags: synthetic peptide, American Peptide Co; HIV LAI isolate; label: 5'-32P; linker-bridged hairpin with UCU bulge
T1 chain: RKKRRQRRRPPQGS

[4] = molecular target: T1, HIV-1 Tat-derived peptide RKKRRQRRRPPQGS; assay: EMSA; Tm 60 C; settings: protein: synthetic; tags: synthetic peptide, American Peptide Co; HIV LAI isolate; label: 5'-32P; linker-bridged hairpin
[5] = molecular target: T1, HIV-1 Tat-derived peptide RKKRRQRRRPPQGS; assay: EMSA; 38.3% active RNA; settings: protein: synthetic; tags: synthetic peptide, American Peptide Co; HIV LAI isolate; label: 5'-32P; linker-bridged hairpin with UCU bulge
[6] = molecular target: T1, HIV-1 Tat-derived peptide RKKRRQRRRPPQGS; assay: EMSA; Tm 61 C; SEQ 2 in the listing appears to be printed 3'-5'; settings: protein: synthetic; tags: synthetic peptide, American Peptide Co; HIV LAI isolate; label: 5'-32P; bottom-linked duplex with UCU bulge
[7] = molecular target: T2, HIV-1 Tat full-length (86 aa) (Human immunodeficiency virus 1, UniProt P04608 P04608:1-86); assay: EMSA; binds efficiently; settings: tags: American Bio-Technologies, Inc; label: 32P; cyclic dumbbell with UCU bulge
[8] = molecular target: T2, HIV-1 Tat full-length (86 aa); assay: EMSA; pre-formed complex used for competition; settings: tags: American Bio-Technologies, Inc; label: 5'-32P; hairpin with UCU bulge and 6-nt loop
[9] = molecular target: T1, HIV-1 Tat-derived peptide RKKRRQRRRPPQGS; assay: EMSA; 10 mM Tris pH 7.5, 50 mM NaCl, 1 mM DTT, 1 mM EDTA, 23 C; 45.9% active RNA; settings: protein: synthetic; tags: synthetic peptide, American Peptide Co; HIV LAI isolate; label: 5'-32P; hairpin with UCU bulge and 6-nt loop
[10] = molecular target: T1, HIV-1 Tat-derived peptide RKKRRQRRRPPQGS; assay: EMSA; binds efficiently; settings: protein: synthetic; tags: synthetic peptide, American Peptide Co; HIV LAI isolate; label: 32P; cyclic dumbbell with UCU bulge
[11] = molecular target: T1, HIV-1 Tat-derived peptide RKKRRQRRRPPQGS; assay: EMSA; 17.8% active RNA; settings: protein: synthetic; tags: synthetic peptide, American Peptide Co; HIV LAI isolate; label: 5'-32P; linker-bridged hairpin with UCU bulge

## conjugate (III): 22-deoxyribonucleotide fully hybridized ICP4 DNA-binding site (SEQ ID NOS 6 and 7), strands joined by linker LA HO--(CH2)9--OH (chain 1 CGCTATCGTCCATACCGACCAC; chain 2 GTGGTCGGTATGGACGATAGCG; DNA, backbone not given here; strands joined by nonanediol linker)
[1]; 1 μM conjugate
  % Inhibition (plaque reduction, HSV-1 replication): 25%
[1]; 10 μM conjugate
  % Inhibition (plaque reduction, HSV-1 replication): 50%
[1]; plaque reduction assay
  Inhibition of HSV-1 (in words): inhibit HSV-1

## GGAGAUCUGAGCGCUCUCUCC [TAR conjugate 5D]
[2]; linker D (hexaethylene glycol) replaces 6-nt loop between the two strands, 56.0% active RNA
  Kd: 0.66 nM

## GGAGAUCUGAGCGCUCUCUCC [TAR conjugate 5B]
[2]; linker B (triethylene glycol) replaces 6-nt loop between the two strands, 42.6% active RNA
  Kd: 0.95 nM

## GGAGAUCUGAGCGCUCUCUCC (ssRNA, linker A -O-(CH2)9-O- replaces 6-nt loop between the two strands) [TAR conjugate 5A]
[3]
  Kd: 0.71 nM

B1: TAR conjugate structure 8 (ssRNA)
RNA: GGAGAUGAGCGCUCUCUCC
modifications: bulge UCU replaced by U-Lc-Lc (two C3 linkers between nt 6 and nt 9); loop closure shown only in structure drawing
[4]
  Kd: 0.51 nM

## GGAGAUCUGAGCGCUCUCUCC (ssRNA, two coupled linkers B replace 6-nt loop between the two strands) [TAR conjugate 5BB]
[5]
  Kd: 1.13 nM

## GCUCUCUCCGGAGAUCUGAGC (ssRNA, chemical linker at bottom of duplex between the two strands) [TAR conjugate oligomer 9]
[6]
  Kd: 2.2 nM

## GGAGAUCUGAGCGCUCUCUCC (ssRNA, cyclic 21-mer, linker D at top and bottom of duplex) [cyclic TAR conjugate oligomer 15]
[7]
  binding result: binds

## GGAGAUCUGAGCCUGGGAGCUCUCUCC (ssRNA) [TAR 27-mer (oligomer 4)]
[8]
  binding result: binds
[9]
  Kd: 0.41 nM

## UCUCCUUCGGGAGAUCUGAGCCUGGGAGCUC (ssRNA, cyclic (T4 RNA ligase closed)) [cyclic TAR 31-mer (oligomer 13)]
[7]
  binding result: binds
[10]
  binding result: binds

## GGAGAUCUGAGCGCUCUCUCC (ssRNA, two coupled linkers C replace 6-nt loop between the two strands) [TAR conjugate 5CC]
[11]
  Kd: 0.43 nM
